Results: the supplement of paper PMC12042874
± gives the uncertainty stated by the source.

assay: amyloid nucleation score (Sup35N fusion, yeast selection) (log enrichment); library NNK3; higher = more nucleation; inactive = no reads after selection
How it was run: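 Plasmid inserts were Illumina-sequenced at input and output from psi-negative yeast expressing Sup35N fused to peptides of 20 random codons. The yeast were induced with 100 μM copper sulfate for 24 hours and grown 7 days at 30°C on medium lacking adenine and uracil, and sequences with under 100 input reads were excluded. Nucleation score is the DiMSum log enrichment of output over input reads, centred on the mode score of non-aggregating sequences.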

| Substance | amyloid nucleation score |
| --- | --- |
| NVVCNDPPPGVYEDLGWTGI | inactive |
| AEHYVRYRRCSATWRICWMY | inactive |
| PGVLLVWLSYSGSRLLS | inactive |
| AMNPLRLGLWSYNRLAWNMS | inactive |
| CQIKNGLDNQKTDYNSSPF | inactive |
| GMFCNGINTNYVPVYYYRSV | 1.27 ± 0.17 |
| FVDLSGRSCRVPTEVWGFHS | inactive |
| LVTFFSGRYGHWWLDNCWRQ | inactive |
| ECYFFHFTR | 1.34 ± 0.12 |
| VRVMDLVGKALSTSSVANLA | inactive |
| FHYVCFTFDSKFVGKLSYGS | 1.61 ± 0.1 |
| GRWLV | inactive |
| GHIYCYSVKE | inactive |
| TKLWFCNFCYSLDAGIGKCV | 2.37 ± 0.077 |
| VKKDMRRLLMFRIGGKSFGG | inactive |
| TTRIVSNCCMLIVL | 1.29 ± 0.12 |
| LWKFSILAYRRFILFKLQMN | inactive |
| KCAALLDPDSASGGRCEWNC | 1.08 ± 0.17 |
| KSGYCNKCMNGFSGTLTSNY | inactive |
| FSDNSSRSGSNSEWYGS | inactive |
| TGFLGWDACGALRIFLTVRW | inactive |
| IVKRFWLNGSFTFSFCNGNG | 2.09 ± 0.09 |
| SSECSMALIL | inactive |

| Substance | amyloid nucleation score |
| --- | --- |
| WVWRSNSPGAEKWTLLTKTL | inactive |
| ANPFFSLDK | inactive |
| HIYRYLMS | inactive |
| TLSMSWDLTKHFAVVTESRG | inactive |
| HFFNPCQGHRNKVPRRAS | inactive |
| IVVVFNPFGDELTYWVTQSM | inactive |
| SITTEVFDSQVNKLRELDGW | inactive |
| VMYCYWSLIMSDSCNFMCQY | 2.08 ± 0.058 |
| WHIEVC | inactive |
| VVCIHLVVDTVC | inactive |
| VYECFSSWTWSWVCQCQAVF | inactive |
| CEEPFETIS | 0.949 ± 0.25 |
| CEFWNKYSNLWIWGWL | 0.51 ± 0.31 |
| TSMSGDVHVVYVVVEHVKPP | 2.46 ± 0.089 |
| EVDFVALIPCSQTVLFTVEV | inactive |
| LVPVMTFNWPKPSNGVSAVA | -0.413 ± 1 |
| EDIEMEMLLLGCNLEVLNAK | inactive |
| SVFRSMSTSILVFSPVHYCE | inactive |
| WEFAGVVYEWGVWKSVSGYG | 0.336 ± 0.3 |
| RVSFTSITWVSSLM | 0.003 ± 0.98 |
| RIMGSPQSDS | inactive |
| NVTCGRLTPSRDLKHAPVI | -0.32 ± 1.1 |
| MSAGCLLNL | inactive |

| Substance | amyloid nucleation score |
| --- | --- |
| GYISMSNKHMGVYIHLA | inactive |
| YRESDKVTFWLYLSRVDDLD | 2.06 ± 0.083 |
| NWLVSWFLFFPNSPLFCYHW | inactive |
| YYDMIMLPAKSDANRCYGCA | inactive |
| DLVMDFQ | inactive |
| CKFFQGKEEVS | inactive |
| VQAAKLVYHYQGSCLNRLRE | inactive |
| LCCGKCRPGPKFCTKISHTN | inactive |
| KLAKHH | inactive |
| NYARTFSRKRMVQKTRSGKG | -0.077 ± 0.4 |
| ADNTDMKMTEVGTHHNGNQN | inactive |
| KCLMNFTVMRGASSCLEVPC | inactive |
| YCSVLELKSYLTLSLSKWKW | inactive |
| ISWVRFRAVFWMRMFEAH | -0.441 ± 1.4 |
| LVVPGYNLL | inactive |
| LKMMSLLTSEATSMHHGVNW | inactive |
| QYLCWCCVARRPGSGFRTVV | inactive |
| SIWSALSDLLLSKREE | inactive |
| DMINSGQISDHVLD | inactive |
| RNVCMSEVGSVDKSSLLHGN | inactive |
| SYMQAWVTNCMSVFSVVMKQ | inactive |
| RYSEWPAD | inactive |
| VNNKIVVWTIMSSNDERLPS | 1.54 ± 0.082 |

| Substance | amyloid nucleation score |
| --- | --- |
| ILSTIVMFLVPSYHLFWLWA | inactive |
| PHSQDMVWQCCWGGATAEES | -0.047 ± 0.72 |
| TCWLVFSSFPINKLVLRNKT | inactive |
| SGRSRWNAH | inactive |
| ANSTAAVKSLGRV | inactive |
| SSCTLVKAGLVNFLRARYSG | inactive |
| VNSLNHYYLIPCARFEPEG | inactive |
| MGTVVTMSMRLSNSVWGVGH | 1.28 ± 0.14 |
| LFSQHYWIVSIFIASWIRYC | inactive |
| YDKVLRPMVSYYSR | inactive |
| TYAYELRIFSDYSHGLGFDP | -0.659 ± 0.88 |
| LCLHERCDALSFDDNPYSTR | inactive |
| QSFLATSFSFYFLSPGYVNY | inactive |
| LTVLSCTAQVDHGIAYCLEV | inactive |
| LVIWHIVKTAVMWTARTERL | -0.409 ± 1.5 |
| NHLLFSIPRSIRWKACVQ | inactive |
| MKLDICWLRLSRCYVVVVWV | inactive |
| YISFFGGFANNGYCWWICAS | 1.81 ± 0.069 |
| CNMDISVCYYRLLMWQRGFR | inactive |
| IGKRSVRVIDPVFYKPFANM | inactive |
| TMMACEANWYRSKNIEFVYA | inactive |
| LIHFV | inactive |
| WLLENVPGITLAFV | inactive |

| Substance | amyloid nucleation score |
| --- | --- |
| PGYSFKVSA | -1.06 ± 2.5 |
| SSMICVQFGM | inactive |
| HILHLRLDYFLGA | 0.401 ± 0.3 |
| IDSCLQNSP | inactive |
| RMFLHLTRNKCVRVKKASQE | inactive |
| ILFEFTTPNLSYIFCFFTIH | inactive |
| DLSVYYVLLFVCDGL | -1.35 ± 1.8 |
| PTQNKSDKVACGR | inactive |
| YSIIVSRNRNGRLRFRWSNG | -0.368 ± 0.8 |
| SSHLVWCYDANNHWADHK | inactive |
| LWSCPTDFRMCSVWLTLRVS | inactive |
| VSRGDTINIISSVDCVKTYF | inactive |
| FPRSSRIFSCCSRIRLCAFV | inactive |
| PSYNCFTKFVADQTVTLRFS | inactive |
| SFMRCFNIVWYTSILLRYTW | inactive |
| LSDGGAFLLIRHVFVWGFVT | inactive |
| LLRRNINMFSIQFFSRVTWL | -0.141 ± 0.96 |
| FQLWVKRTYNAEGNLYSPDD | inactive |
| RSILDM | inactive |
| QQHDELCGVHMGSGHF | inactive |
| NAYSSLQWREIVSHIYQSCQ | inactive |
| YVIICYST | -0.539 ± 1 |
| KFWLKVHFYEHKWSWVMFEC | inactive |

| Substance | amyloid nucleation score |
| --- | --- |
| ILNRLCRDLYVAFTSSAACR | inactive |
| LKNPARYYYVVQIFMVLSTA | inactive |
| HFNPPYRMFPHYVLLMNMYL | inactive |
| ASSSNGIVTFNNPR | inactive |
| LQSGDRIVTDSYVRAYTMHV | inactive |
| HDAVLI | inactive |
| VFVTM | inactive |
| MTMQKSSIFFLHEAKLNFSA | inactive |
| KINGIDSSGMCAISLIKKGA | inactive |
| HIINCFIFLNVTDYTIVFLL | 2.21 ± 0.074 |
| DRVFLQPTCYITAGYGFRVM | inactive |
| LNFNSWNGLKYR | inactive |
| SCVGVRVLCSAVV | inactive |
| HTDIMIWFRSCYYFLSFFMY | inactive |
| CSVLC | inactive |
| LLSADFSFSSVEMKLARLGV | 1.22 ± 0.18 |
| FTGFN | inactive |
| MIVNNELCTNLPYLSGAVNR | inactive |
| FDFRFYQVVVGGCRIETVIV | inactive |
| RVLNS | inactive |
| EAGSTLWCGWKRYASCGRAE | inactive |
| YYVRRIMT | inactive |
| IGIEFLNLKHLPSYLLSVRF | inactive |

| Substance | amyloid nucleation score |
| --- | --- |
| MSVIIAIAMYRLFRDRTHPL | inactive |
| CTHHKNACL | inactive |
| YCGKCRAFCCQSCPIRVRLV | inactive |
| KDLKMYRGF | inactive |
| LIYVFIIFVMIFWVCCTMRS | 0.166 ± 0.42 |
| VCTFTETHGTYLVFALYQPD | 0.367 ± 0.54 |
| NSIQEDV | inactive |
| YLVGCWNYESKN | 0.234 ± 0.25 |
| YICVMWMYSCKLSLPMWHPR | inactive |
| HSNSRD | -0.231 ± 0.69 |
| SGQSNDCVMDVWMDM | inactive |
| DCIYRDVCFNFTYMCKVNAQ | inactive |
| RRSKISLS | inactive |
| DAISVLCFLLKSFRWSTFRG | inactive |
| SVRTSAYYKFQRTERVSMCM | inactive |
| SCSNCVHISRTAILTGPRSA | inactive |
| YSNYCGQFSIVPIVFFYIVI | 1.1 ± 0.15 |
| RFLFNKRL | -0.029 ± 0.81 |
| NKWYSNLQNCCCSLNHTGEG | 0.624 ± 0.23 |
| VSRYGYCCRRIYAELHGFPD | inactive |
| YPWGEGNGYTCGV | inactive |
